Laboratory results from publication PMC2880918.

Columns and labels:
[1] = molecular target: Nucleosome Assembly Protein 1 (Nap1) (UniProt P25293); assay: FRET or BRET
[2] = molecular target: H2A–H2B dimer (Xenopus laevis) (UniProt P06897); assay: FRET or BRET

| Kd [1] | Kd [2] | Substance |
| --- | --- | --- |
| 11 nM | – | (H3K56ac-H4)2 tetramer (from UniProt P62799 1-103) (complex) |
| – | 35 nM | tetrasome with the fluorescent label on H4 (from UniProt P62799 1-103) (complex) |
